Assays:
[1] = target: T1, human LAG-3 overexpressed on cells (human, UniProt P18627 23-525); test: cell-based or functional assay
T1 sequence (looked up): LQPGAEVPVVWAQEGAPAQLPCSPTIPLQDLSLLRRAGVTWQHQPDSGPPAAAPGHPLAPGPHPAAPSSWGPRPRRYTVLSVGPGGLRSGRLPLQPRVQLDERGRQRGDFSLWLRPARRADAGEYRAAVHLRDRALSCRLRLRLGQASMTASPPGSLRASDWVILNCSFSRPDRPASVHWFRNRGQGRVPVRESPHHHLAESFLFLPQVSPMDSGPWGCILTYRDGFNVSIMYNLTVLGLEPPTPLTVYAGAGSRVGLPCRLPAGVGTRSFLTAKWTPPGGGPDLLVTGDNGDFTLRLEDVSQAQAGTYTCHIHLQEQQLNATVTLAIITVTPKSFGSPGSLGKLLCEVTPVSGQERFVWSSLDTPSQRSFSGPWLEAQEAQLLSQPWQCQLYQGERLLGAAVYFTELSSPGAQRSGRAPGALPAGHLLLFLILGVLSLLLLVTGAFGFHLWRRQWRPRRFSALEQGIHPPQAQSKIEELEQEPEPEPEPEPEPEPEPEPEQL

[2] = target: T2, monkey (Rhesus monkey) LAG-3 overexpressed on HEK293E cells (Rhesus monkey, UniProt A0A5F8A874 23-533); test: flow cytometry, HEK293E cells overexpressing monkey LAG-3
T2 construct: whole, on cells; also called HEK293E-MrhLAG3; MrhLAG3 (Rhesus Monkey)
T2 sequence: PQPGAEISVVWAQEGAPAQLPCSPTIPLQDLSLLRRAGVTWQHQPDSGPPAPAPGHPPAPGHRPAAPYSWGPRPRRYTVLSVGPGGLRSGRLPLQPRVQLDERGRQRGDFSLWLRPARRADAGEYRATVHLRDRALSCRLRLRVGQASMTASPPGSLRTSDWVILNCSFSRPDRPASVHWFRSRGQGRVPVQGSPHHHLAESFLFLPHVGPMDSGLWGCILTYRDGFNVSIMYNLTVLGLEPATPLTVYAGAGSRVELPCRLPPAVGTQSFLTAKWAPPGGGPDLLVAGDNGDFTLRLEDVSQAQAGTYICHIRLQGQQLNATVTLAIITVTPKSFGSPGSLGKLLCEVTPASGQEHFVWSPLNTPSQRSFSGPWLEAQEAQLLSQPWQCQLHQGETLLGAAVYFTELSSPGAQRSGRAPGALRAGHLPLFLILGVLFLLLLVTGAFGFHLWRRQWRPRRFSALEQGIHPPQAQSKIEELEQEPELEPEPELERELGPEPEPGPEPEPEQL
Protocol: After that, the cells were washed three times with PBS containing 2% FBS and then subjected to the reaction for 30 minutes at 4° C. with anti-human IgG antibody (#FI-3000, Vectorlabs) linked with FITC fluorescent. The cells were washed by the same washing process as above followed by suspension in 0.2 ml PBS containing 2% FBS. The cells were then analyzed by FACSCanto II flow cytometer.

[3] = target: T3, recombinant human LAG-3 extracellular domain fused with mouse Fc (hLAG-3-mFc) (human, UniProt P18627 29-450); test: flow cytometry, inhibition of LAG-3-mFc binding to Raji cells (MHC class II)
T3 construct: range 29-450; Made in HEK293F cells; also called human LAG-3 antigen; wild-type (WT) LAG-3; not shown: mouse Fc (mFc) at the carboxy terminal
T3 sequence (looked up): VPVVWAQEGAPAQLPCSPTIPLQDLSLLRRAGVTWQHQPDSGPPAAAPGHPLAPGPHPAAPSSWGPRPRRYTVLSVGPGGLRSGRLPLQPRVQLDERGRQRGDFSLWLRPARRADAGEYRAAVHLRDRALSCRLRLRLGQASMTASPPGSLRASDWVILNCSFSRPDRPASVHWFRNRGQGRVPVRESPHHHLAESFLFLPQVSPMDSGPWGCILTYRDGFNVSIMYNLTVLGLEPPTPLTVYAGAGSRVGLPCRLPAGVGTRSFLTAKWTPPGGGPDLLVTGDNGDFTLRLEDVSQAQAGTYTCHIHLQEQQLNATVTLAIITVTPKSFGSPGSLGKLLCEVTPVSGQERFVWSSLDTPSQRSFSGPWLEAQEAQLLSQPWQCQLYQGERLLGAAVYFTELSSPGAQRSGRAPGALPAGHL
Protocol: After that, the antigen-antibody mixture was reacted with the prepared cells for 30 minutes at 4° C. […] After washing them in the same manner as above and suspending them in 0.2 ml PBS containing 2% FBS, analysis was made using CytoFLEX flow cytometer (Beckman coulter, USA)

EC50 value representing the capacity of recovering the inhibition [1]: 0.0578 µg/mL
activity against the control antibody (fold) [1]: ~2.9 times
EC50 [2]: 0.246 µg/mL
IC50 [3]: 25.1 nM
B1: human anti-LAG-3 monoclonal antibody 1E09 (antibody, V domains shown)
VH: QVQLVQSGGDLVKPGGSLRLSCAASGFSFSDHYMNWIRQAPGKGLEWVAYIDTSATYIYYADSVKGRFTISRDNAKNSLYLQMNSLRAEDTAVYYCARDNWGSLDYWGQGALVTVSS
VL: DIQMTQSPSSLSPSVGDRVTITCQASQEISIYLNWYQQKPGKAPKLLIYDASNLETGVPSRFSGSGSGTDFTLTISSLQPEDFATYYCQQTYITPYTFGQGTKLDIK
notes: Tested as full IgG converted from scFv; also called LAG-3-1E09; Parent (1E09)
